Reference: patent publication US20160194391A1
Numbering of substitutions follows the chain as printed.

Assays:
human IL-6 (human) [1] = molecular target: human IL-6 (human) (UniProt P05231); assay: cell-based or functional assay
3×FLAG-IL-6 (human) [2] = assay: SPR, 3×FLAG-IL-6 captured by anti-FLAG M2 on protein G, scFv-PEG as analyte; material refolded by dialysis from urea; refolded by dialysis from urea
3×FLAG-IL-6 (human) [3] = assay: SPR, 3×FLAG-IL-6 captured by anti-FLAG M2 on protein G, scFv-PEG as analyte; material refolded by rapid dilution from SDS; refolded by rapid dilution from SDS
3×FLAG-IL-6 (human) [4] = assay: SPR, 3×FLAG-IL-6 captured by anti-FLAG M2 on protein G, scFv-PEG as analyte; material refolded by dialysis from urea
[5] = molecular target: human dimeric IL-23 (eBiosciences 34-8239) (human) (UniProt P29460)
Sequence of human dimeric IL-23 (eBiosciences 34-8239) (human) (P29460 23-328 limits assumed, chain 1 of 2): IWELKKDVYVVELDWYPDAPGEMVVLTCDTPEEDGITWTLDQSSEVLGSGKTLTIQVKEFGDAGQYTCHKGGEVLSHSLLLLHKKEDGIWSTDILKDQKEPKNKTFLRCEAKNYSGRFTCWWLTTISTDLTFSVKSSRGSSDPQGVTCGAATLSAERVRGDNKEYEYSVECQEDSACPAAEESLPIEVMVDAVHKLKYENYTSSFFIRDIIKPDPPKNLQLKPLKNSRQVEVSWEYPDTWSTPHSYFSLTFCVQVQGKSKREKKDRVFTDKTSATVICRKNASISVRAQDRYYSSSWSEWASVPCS
Sequence of human dimeric IL-23 (eBiosciences 34-8239) (human) (Q9NPF7 20-189 limits assumed, chain 2 of 2, further chain): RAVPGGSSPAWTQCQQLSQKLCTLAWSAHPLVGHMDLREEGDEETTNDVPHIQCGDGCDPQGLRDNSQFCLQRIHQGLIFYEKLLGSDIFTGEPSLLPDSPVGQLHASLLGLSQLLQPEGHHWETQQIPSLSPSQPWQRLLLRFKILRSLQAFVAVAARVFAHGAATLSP

human IL-6 (human) [6] = molecular target: human IL-6 (human) (UniProt P05231)

Sequence of human IL-6 (human) (P05231 30-212 limits assumed): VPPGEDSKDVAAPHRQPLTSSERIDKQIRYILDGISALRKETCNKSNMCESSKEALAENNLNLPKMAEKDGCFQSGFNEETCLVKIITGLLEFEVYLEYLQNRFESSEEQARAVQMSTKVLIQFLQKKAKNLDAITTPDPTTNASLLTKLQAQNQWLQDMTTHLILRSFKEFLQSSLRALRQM
Sequence of 3×FLAG-IL-6 (human) (chain, as listed by the source limits assumed): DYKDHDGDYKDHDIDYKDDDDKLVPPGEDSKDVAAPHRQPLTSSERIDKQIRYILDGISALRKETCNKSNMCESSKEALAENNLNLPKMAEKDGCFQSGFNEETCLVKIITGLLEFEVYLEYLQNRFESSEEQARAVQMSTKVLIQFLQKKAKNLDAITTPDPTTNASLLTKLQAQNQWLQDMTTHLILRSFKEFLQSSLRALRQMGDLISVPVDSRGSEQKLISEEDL

B1: 28D2c-PEG (scFv)
scFv: MAHHHHHHPPPPAAADIQLTQSPSFLSASVGDRVTITCQASEDLFSSLAWYQQKPGKAPKLLIYSASTLASGVPSRFSGSGSGTDFTLTISSLQPEDFATYYCLGLYYYLTPDPIYGFGGGTKVEIKGGGGSGGGGSGGGGSGGGGSEVQLVESGGGLVQPGGSLRLSCTVSGLSLSKNAIAWVRQAPGKGLEWVGIIYAGGATTYASWAKGRFTISRDNSKNTLYLQLNSLRAEDTAVYYCAREYAGDSYYTGYTQLDLWGQGTLVTVSSGM
modifications: C-terminal azidohomoalanine (Aha) conjugated to 30 kDa linear PEG alkyne
B1 was tested, and the EC50, IL-6 neutralization; folded by dialysis from urea (human IL-6 (human) [1]) was 0.116 ng/mL, the EC50 of the product; folded by rapid dilution from SDS (human IL-6 (human) [1]) was 0.256 ng/mL and the EC50 of the product; folded by rapid dilution from urea (human IL-6 (human) [1]) was 0.138 ng/mL. The EC50 of the product; folded from guanidine (human IL-6 (human) [1]) was 0.15 ng/mL, the kon (3×FLAG-IL-6 (human) [2]) was 507000 M⁻¹ s⁻¹ and the Kd (3×FLAG-IL-6 (human) [3]) was 0.319 nM. For the same binder, the koff (3×FLAG-IL-6 (human) [3]) was 0.000104 s⁻¹, the kon (3×FLAG-IL-6 (human) [3]) was 326000 M⁻¹ s⁻¹ and the Kd (3×FLAG-IL-6 (human) [4]) was 0.193 nM. For the same binder, the koff (3×FLAG-IL-6 (human) [4]) was 9.78e-05 s⁻¹.

B2: 45G5 humanized scFv (mammalian expressed) (scFv)
scFv: DIQLTQSPSFLSASVGDRVTITCQSSQSIYNNNLLSWYQQKPGKAPKLLIYFASTLASGVPSRFSGSGSGTEFTLTISSLQPEDFATYYCLGGYDDDADTAFGGGTKVEIKGGGGSGGGGSGGGGSGGGGSEVQLVESGGGLVQPGGSLRLSCTVSGFSLSVYPINWVRQAPGKGLEWVGIINDVDDTAYSAWAKGRFTISRDNSKNTLYLQMNSLRAEDTAVYYCARGYLSYAYAGDAFDPWGQGTLVTVSSGPPPPHHHHHH
In the case of B2, the IC50 (read off the curve) (IL-17 from mouse splenocytes, OD450) [5] is reported as 0.4 ng/mL.

B3: 28D2 N-Aha (scFv)
scFv: MEDIQLTQSPSFLSASVGDRVTITCQASEDLFSSLAWYQQKPGKAPKLLIYSASTLASGVPSRFSGSGSGTDFTLTISSLQPEDFATYYCLGLYYYLTPDPIYGFGGGTKVEIKGGGGSGGGGSGGGGSGGGGSEVQLVESGGGLVQPGGSLRLSCTVSGLSLSKNAIAWVRQAPGKGLEWVGIIYAGGATTYASWAKGRFTISRDNSKNTLYLQLNSLRAEDTAVYYCAREYAGDSYYTGYTQLDLWGQGTLVTVSSGPPPPPHHHHHH
modifications: azidohomoalanine (Aha) in place of the single Met, at the N terminus
For B3, the IC50 (read off the curve) (B9 proliferation, OD570-600) (human IL-6 (human) [6]) was 0.03 ng/mL.

B4: 28D2-C Aha (scFv)
scFv: B1 scFv
modifications: azidohomoalanine (Aha) in place of the single Met, at the C terminus
B4 gave an IC50 (read off the curve) (B9 proliferation, OD570-600) (human IL-6 (human) [6]) of 0.03 ng/mL.

B5: 28D2-L Aha (scFv)
scFv: B3 scFv with E2A, G121M
modifications: azidohomoalanine (Aha) in place of a single Met in the Gly/Ser linker between VL and VH
B5 gave an IC50 (read off the curve) (B9 proliferation, OD570-600) (human IL-6 (human) [6]) of 0.03 ng/mL.
